{"source": "paper PMC11209618", "key": {"[1]": {"molecular_target": "voltage-gated sodium channel Nav1.4 (UniProt P35499)", "sequence (P35499 whole entry)": "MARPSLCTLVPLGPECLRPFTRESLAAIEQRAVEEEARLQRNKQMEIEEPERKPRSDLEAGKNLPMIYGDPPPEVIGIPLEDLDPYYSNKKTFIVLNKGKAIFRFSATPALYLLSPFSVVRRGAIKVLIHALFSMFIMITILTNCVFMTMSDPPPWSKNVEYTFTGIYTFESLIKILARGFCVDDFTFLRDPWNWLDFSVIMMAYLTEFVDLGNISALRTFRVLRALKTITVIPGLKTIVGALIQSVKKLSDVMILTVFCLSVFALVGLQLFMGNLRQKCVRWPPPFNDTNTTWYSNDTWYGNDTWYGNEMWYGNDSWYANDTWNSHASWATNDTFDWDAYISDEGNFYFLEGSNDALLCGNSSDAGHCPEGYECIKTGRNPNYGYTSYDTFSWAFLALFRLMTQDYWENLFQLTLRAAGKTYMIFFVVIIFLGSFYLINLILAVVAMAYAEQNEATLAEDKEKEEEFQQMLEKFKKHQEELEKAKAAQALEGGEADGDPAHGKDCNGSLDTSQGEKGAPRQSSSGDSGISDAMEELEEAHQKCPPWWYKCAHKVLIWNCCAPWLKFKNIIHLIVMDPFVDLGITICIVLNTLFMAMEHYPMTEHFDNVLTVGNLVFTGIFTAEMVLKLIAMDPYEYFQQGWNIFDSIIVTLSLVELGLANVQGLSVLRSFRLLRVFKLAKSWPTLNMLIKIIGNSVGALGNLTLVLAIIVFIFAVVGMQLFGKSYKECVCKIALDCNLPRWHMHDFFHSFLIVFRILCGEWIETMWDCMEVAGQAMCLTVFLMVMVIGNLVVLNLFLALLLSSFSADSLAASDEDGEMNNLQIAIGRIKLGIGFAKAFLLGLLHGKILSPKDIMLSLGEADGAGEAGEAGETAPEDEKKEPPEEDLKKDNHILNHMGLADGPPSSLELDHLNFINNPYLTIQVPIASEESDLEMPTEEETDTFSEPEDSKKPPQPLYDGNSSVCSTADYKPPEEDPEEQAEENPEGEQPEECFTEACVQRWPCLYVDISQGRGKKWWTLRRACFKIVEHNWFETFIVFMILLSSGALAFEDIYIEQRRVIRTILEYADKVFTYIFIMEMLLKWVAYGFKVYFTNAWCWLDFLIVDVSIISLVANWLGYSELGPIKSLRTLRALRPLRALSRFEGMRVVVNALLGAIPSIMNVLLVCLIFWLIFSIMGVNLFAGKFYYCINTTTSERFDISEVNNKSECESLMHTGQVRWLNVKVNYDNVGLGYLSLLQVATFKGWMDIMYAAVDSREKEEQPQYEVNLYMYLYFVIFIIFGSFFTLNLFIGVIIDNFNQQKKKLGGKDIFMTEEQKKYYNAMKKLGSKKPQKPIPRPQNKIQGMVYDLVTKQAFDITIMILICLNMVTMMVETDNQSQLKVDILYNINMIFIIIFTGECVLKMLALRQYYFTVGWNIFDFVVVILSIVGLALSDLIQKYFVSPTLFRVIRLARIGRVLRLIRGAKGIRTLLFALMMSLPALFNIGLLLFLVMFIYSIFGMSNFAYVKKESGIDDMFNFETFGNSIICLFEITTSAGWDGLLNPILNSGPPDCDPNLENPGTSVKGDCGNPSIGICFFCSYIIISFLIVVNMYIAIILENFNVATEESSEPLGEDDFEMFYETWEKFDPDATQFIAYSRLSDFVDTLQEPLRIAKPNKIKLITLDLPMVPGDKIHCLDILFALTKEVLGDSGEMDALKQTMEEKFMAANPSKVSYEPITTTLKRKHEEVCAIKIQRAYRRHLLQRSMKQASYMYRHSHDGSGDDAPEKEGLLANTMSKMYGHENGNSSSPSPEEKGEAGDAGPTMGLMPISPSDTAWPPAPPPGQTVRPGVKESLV"}, "[2]": {"molecular_target": "voltage-gated sodium channel Nav1.7 (UniProt Q15858)", "sequence (Q15858 whole entry)": "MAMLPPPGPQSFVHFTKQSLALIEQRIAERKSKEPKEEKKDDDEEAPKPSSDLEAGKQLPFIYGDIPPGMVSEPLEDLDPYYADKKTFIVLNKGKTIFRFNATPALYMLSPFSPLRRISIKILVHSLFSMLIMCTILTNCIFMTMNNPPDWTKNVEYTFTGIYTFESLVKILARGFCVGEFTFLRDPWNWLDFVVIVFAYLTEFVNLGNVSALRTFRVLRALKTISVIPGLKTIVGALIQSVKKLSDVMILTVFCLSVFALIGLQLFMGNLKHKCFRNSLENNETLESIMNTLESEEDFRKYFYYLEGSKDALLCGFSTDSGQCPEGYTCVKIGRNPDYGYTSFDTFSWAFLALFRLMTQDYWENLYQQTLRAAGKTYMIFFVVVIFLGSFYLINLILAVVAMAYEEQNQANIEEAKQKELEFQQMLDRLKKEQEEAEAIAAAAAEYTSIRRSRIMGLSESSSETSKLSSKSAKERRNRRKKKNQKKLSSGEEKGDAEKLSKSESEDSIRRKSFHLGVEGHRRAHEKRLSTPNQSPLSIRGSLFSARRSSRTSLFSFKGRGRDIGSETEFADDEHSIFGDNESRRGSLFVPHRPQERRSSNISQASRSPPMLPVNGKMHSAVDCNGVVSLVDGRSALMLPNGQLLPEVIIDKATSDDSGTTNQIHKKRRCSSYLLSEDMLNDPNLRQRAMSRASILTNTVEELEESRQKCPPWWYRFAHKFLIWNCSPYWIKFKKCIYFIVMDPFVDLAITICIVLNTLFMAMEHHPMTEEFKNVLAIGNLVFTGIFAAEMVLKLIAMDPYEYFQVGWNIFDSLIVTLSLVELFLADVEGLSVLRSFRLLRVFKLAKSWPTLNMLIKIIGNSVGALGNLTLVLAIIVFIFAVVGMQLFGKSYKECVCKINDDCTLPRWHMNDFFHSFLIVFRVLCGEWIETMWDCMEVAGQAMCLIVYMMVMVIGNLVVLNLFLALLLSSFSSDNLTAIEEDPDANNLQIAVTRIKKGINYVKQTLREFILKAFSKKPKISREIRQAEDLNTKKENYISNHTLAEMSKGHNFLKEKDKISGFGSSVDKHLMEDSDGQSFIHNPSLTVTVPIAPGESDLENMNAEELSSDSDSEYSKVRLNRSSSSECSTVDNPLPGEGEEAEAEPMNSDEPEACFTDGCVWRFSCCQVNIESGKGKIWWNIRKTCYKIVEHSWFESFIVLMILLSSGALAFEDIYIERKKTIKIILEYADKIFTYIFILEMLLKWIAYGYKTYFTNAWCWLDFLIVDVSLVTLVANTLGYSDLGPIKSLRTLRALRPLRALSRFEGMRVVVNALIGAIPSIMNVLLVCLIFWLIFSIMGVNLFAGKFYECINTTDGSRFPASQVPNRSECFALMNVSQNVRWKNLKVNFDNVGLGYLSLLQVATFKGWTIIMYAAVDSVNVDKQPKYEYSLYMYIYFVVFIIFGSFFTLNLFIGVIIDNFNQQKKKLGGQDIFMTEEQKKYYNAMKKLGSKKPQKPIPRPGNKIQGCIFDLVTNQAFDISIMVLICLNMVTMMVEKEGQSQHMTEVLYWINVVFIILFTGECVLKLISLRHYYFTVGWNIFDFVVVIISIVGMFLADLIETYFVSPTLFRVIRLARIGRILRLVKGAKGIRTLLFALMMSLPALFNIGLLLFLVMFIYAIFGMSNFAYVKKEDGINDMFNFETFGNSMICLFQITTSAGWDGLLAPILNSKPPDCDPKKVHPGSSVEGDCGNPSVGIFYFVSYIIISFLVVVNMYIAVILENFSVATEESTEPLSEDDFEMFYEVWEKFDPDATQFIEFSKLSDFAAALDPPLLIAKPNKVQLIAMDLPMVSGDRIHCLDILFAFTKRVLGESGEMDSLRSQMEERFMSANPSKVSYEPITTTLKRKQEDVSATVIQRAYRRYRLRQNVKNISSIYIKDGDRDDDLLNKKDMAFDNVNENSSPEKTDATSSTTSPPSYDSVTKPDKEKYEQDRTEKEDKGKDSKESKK"}, "[3]": {"molecular_target": "voltage-gated sodium channel Nav1.1 (UniProt P35498)"}, "[4]": {"molecular_target": "voltage-gated sodium channel Nav1.2 (UniProt Q99250)"}, "[5]": {"molecular_target": "voltage-gated sodium channel Nav1.3 (UniProt Q9NY46)"}, "[6]": {"molecular_target": "voltage-gated sodium channel Nav1.4 (UniProt P35499)", "remark": "listed apart in the source"}, "[7]": {"molecular_target": "voltage-gated sodium channel Nav1.5 (UniProt Q14524)"}, "[8]": {"molecular_target": "voltage-gated sodium channel Nav1.6 (UniProt Q9UQD0)"}, "[9]": {"molecular_target": "voltage-gated sodium channel Nav1.7 (UniProt Q15858)", "remark": "listed apart in the source"}}, "data": [{"substance": "Ts3 toxin from Tityus serrulatus venom (natural protein)", "values": [{"measurement": "increase of the fast inactivation time constant (Δτ) of Nav1.4 currents recorded at 0 mV, whole-cell patch clamp, 200 nM Ts3", "setting": "[1]", "result": 4.82, "unit": "ms"}, {"measurement": "increase of the persistent current (ΔIPers) of Nav1.4, whole-cell patch clamp, 200 nM Ts3", "setting": "[1]", "result": 3.1, "unit": "%"}, {"measurement": "shift of the half-maximal activation voltage (ΔV1/2) of Nav1.4, whole-cell patch clamp, 200 nM Ts3", "setting": "[1]", "result": -4.15, "unit": "mV"}, {"measurement": "shift of the half-maximal steady-state inactivation voltage (ΔV1/2h) of Nav1.4, whole-cell patch clamp, 200 nM Ts3", "setting": "[1]", "result": 2.03, "unit": "mV"}, {"measurement": "delay of fast inactivation of Nav1.7 currents recorded at 0 mV, whole-cell patch clamp, 200 nM Ts3", "setting": "[2]", "result": 9.37, "unit": "ms"}]}, {"substance": "Tst3 toxin from Tityus stigmurus venom (from UniProt P0C8X5 1-64) (natural protein)", "values": [{"measurement": "increase of the fast inactivation time constant (Δτ) of Nav1.4 currents recorded at 0 mV, two-step protocol of the Tst3/Ts3 comparison, whole-cell patch clamp, 200 nM Tst3", "setting": "[1]", "result": 6.09, "unit": "ms"}, {"measurement": "increase of the persistent current (ΔIPers) of Nav1.4, whole-cell patch clamp, 200 nM Tst3", "setting": "[1]", "result": 4.4, "unit": "%"}, {"measurement": "shift of the half-maximal activation voltage (ΔV1/2) of Nav1.4, whole-cell patch clamp, 200 nM Tst3", "setting": "[1]", "result": -5.19, "unit": "mV"}, {"measurement": "shift of the half-maximal steady-state inactivation voltage (ΔV1/2h) of Nav1.4, whole-cell patch clamp, 200 nM Tst3", "setting": "[1]", "result": 1.22, "unit": "mV"}, {"measurement": "increase of the fast inactivation time constant (Δτ) of Nav1.1, whole-cell patch clamp, 200 nM Tst3", "setting": "[3]", "result": 5.71, "unit": "ms"}, {"measurement": "shift of the half-maximal activation voltage (ΔV1/2) of Nav1.1, whole-cell patch clamp, 200 nM Tst3", "setting": "[3]", "result": -7.15, "unit": "mV"}, {"measurement": "increase of the fast inactivation time constant (Δτ) of Nav1.2, whole-cell patch clamp, 200 nM Tst3", "setting": "[4]", "result": 9.17, "unit": "ms"}, {"measurement": "shift of the half-maximal activation voltage (ΔV1/2) of Nav1.2, whole-cell patch clamp, 200 nM Tst3", "setting": "[4]", "result": -9.02, "unit": "mV"}, {"measurement": "increase of the fast inactivation time constant (Δτ) of Nav1.3, whole-cell patch clamp, 200 nM Tst3", "setting": "[5]", "result": 6.87, "unit": "ms"}, {"measurement": "shift of the half-maximal activation voltage (ΔV1/2) of Nav1.3, whole-cell patch clamp, 200 nM Tst3", "setting": "[5]", "result": -8.68, "unit": "mV"}, {"measurement": "increase of the fast inactivation time constant (Δτ) of Nav1.4, activation protocol of the isoform screen, whole-cell patch clamp, 200 nM Tst3", "setting": "[6]", "result": 5.61, "unit": "ms"}, {"measurement": "increase of the fast inactivation time constant (Δτ) of Nav1.5, whole-cell patch clamp, 200 nM Tst3", "setting": "[7]", "result": 13.2, "unit": "ms"}, {"measurement": "shift of the half-maximal activation voltage (ΔV1/2) of Nav1.5, whole-cell patch clamp, 200 nM Tst3", "setting": "[7]", "result": -8.66, "unit": "mV"}, {"measurement": "increase of the fast inactivation time constant (Δτ) of Nav1.6, whole-cell patch clamp, 200 nM Tst3", "setting": "[8]", "result": 6.37, "unit": "ms"}, {"measurement": "shift of the half-maximal activation voltage (ΔV1/2) of Nav1.6, whole-cell patch clamp, 200 nM Tst3", "setting": "[8]", "result": -3.82, "unit": "mV"}, {"measurement": "increase of the fast inactivation time constant (Δτ) of Nav1.7, activation protocol of the isoform screen, whole-cell patch clamp, 200 nM Tst3", "setting": "[9]", "result": 18.8, "unit": "ms"}, {"measurement": "shift of the half-maximal activation voltage (ΔV1/2) of Nav1.7, whole-cell patch clamp, 200 nM Tst3", "setting": "[9]", "result": -8.55, "unit": "mV"}, {"measurement": "delay of fast inactivation of Nav1.7 currents recorded at 0 mV, whole-cell patch clamp, 200 nM Tst3", "setting": "[2]", "result": 12.6, "unit": "ms"}]}]}
